These results are taken from patent publication US20150098945A1 (Daiichi Sankyo, published 2015).

The target in assay [1] is T1, N-terminal FLAG-tagged cynomolgus monkey ROBO4, cynoROBO4-1 (pCI-FLAG-cynoROBO4-1) (cynomolgus monkey, UniProt Q8WZ75 28-1007 (human entry)).
T1 chain: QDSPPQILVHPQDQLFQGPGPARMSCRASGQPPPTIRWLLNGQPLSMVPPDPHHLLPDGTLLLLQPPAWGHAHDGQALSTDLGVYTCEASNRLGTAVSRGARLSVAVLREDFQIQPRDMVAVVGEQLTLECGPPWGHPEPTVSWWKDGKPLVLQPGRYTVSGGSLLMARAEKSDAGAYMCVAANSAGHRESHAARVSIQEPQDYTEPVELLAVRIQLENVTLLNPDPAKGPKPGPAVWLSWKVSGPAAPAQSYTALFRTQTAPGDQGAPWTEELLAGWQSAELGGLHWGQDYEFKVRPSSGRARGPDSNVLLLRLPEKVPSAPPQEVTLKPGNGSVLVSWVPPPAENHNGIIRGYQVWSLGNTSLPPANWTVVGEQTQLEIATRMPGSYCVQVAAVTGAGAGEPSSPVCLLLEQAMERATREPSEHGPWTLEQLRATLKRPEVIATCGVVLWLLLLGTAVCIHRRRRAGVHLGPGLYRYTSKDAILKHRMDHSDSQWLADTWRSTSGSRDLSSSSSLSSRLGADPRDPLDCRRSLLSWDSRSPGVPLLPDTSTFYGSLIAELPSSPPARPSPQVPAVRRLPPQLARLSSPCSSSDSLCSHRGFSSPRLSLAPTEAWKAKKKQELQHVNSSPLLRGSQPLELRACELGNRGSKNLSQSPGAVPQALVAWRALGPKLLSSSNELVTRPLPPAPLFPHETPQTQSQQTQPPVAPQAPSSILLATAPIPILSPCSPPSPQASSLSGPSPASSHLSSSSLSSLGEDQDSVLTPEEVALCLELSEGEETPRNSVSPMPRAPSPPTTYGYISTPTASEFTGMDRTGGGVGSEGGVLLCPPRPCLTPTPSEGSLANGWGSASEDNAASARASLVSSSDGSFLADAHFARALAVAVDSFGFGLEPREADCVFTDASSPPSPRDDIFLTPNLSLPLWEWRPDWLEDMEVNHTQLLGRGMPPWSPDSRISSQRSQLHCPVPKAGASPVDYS
The assay can be described thus: flow cytometry (FC500), HEK293 cells transfected with pCI-FLAG-cynoROBO4-1, antibody at 10 µg/mL, FITC goat anti-human IgG Fc; control histogram IgG (human IgG). (In flow cytometry, cells or beads pass a laser one at a time.)

For assay [2], the target named is T2, mouse ROBO4 (pCI-mROBO4-transfected HEK293 cells) (mouse, UniProt Q8C310 28-1012).
T2 sequence: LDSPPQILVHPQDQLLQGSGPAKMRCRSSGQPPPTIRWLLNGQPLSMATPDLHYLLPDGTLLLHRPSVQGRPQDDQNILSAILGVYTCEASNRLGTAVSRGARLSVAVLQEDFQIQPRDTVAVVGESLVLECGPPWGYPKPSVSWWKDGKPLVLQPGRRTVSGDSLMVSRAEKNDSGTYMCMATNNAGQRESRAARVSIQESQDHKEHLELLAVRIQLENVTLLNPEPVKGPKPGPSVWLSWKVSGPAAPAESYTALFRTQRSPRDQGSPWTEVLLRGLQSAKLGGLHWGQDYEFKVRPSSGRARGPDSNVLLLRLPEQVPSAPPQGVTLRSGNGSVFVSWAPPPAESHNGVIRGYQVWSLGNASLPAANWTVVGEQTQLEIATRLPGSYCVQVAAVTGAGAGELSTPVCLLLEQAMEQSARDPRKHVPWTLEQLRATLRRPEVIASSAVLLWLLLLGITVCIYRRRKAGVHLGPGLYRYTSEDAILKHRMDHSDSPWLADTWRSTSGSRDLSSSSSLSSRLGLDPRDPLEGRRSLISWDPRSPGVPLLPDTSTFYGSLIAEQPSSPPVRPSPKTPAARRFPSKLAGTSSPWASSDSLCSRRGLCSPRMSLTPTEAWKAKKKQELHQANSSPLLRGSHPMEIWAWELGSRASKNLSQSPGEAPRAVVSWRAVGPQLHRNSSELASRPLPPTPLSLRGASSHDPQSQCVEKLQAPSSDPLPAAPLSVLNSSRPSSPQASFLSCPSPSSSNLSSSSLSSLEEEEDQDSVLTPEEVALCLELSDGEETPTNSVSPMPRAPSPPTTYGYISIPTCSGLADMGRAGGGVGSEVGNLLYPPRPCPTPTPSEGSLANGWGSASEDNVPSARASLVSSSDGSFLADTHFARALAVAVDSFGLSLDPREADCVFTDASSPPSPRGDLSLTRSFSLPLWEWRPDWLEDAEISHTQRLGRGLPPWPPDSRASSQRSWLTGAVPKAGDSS
The assay can be described thus: flow cytometry, HEK293 cells transfected with pCI-mROBO4, anti-mouse IgG FITC; control histogram IgG (Mouse IgG2a). The procedure: HEK293 cells were inoculated at a concentration of 1.5×10⁶ cells/dish to a 60-mm dish (manufactured by Corning Inc.) and cultured overnight in a DMEM medium containing 10% FBS at 37° C. under 5% CO₂ conditions. On the next day, the HEK293 cells were transfected with pCI-hROBO4, pCI-mROBO4, pCI-raROBO4, pCI-FLAG-cynoROBO4-1, pCI-FLAG-cynoROBO4-2, pCI-hROBO1, pCI-hROBO2, or pCI-hROBO3 using FuGENE6 Transfection Reagent and further cultured overnight at 37° C. under 5% CO₂ conditions. On the next day, the expression vector-transfected cells were treated with TrypLE Express (manufactured by Life Technologies Corp.), washed with PBS containing 5% FBS, and then suspended in PBS containing 5% FBS. The obtained cell suspension was used in flow cytometry analysis.
Each cell suspension prepared in 4)-3-1 was centrifuged, and the supernatant was removed. Then, MAb1 or a negative control Mouse IgG2a was added at a concentration of 10 μg/mL to 2×10⁵ expression vector-transfected cells, and the resulting suspension was left standing at 4° C. for 1 hour. […] Data was analyzed using Flowjo. The histogram of FITC fluorescence intensity was prepared. The antibody was determined to bind in a cross-species manner when the histogram of MAb1 was shifted to a stronger fluorescence intensity region compared with the histogram of the negative control Mouse IgG2a.

B1: humanized MAb1 antibody H-2143 (antibody, human IgG2, kappa, V domains shown)
VH: EVQLVESGGGLVQPGGSLRLSCAASGFTFSTYAMSWVRQAPGKRLEWVATISQGGTYTYYPDSVKGRFTISRDNAKNTLYLQMNSLRAEDTAVYYCARLIYYDYLDYWGQGTLVTVSS
VL: DIVMTQSPLSLPVTLGEPASISCRSSQSLENENKNLYLNWYLQKPGQSPQLLIYRVSNRFSGVPDRFSGSGSGTDFTLKISRVEAEDVGVYYCLQVTHVPWTFGPGTKVDIKR
notes: Human IgG2 / kappa constant regions; also called hMAb1-H4-type heavy chain + hMAb1-L2-type light chain
Regarding B1, in assay [1], the binding result was “binds”.

B2: anti-ROBO4 mouse monoclonal antibody MAb1 (antibody, mouse IgG1, V domains shown)
VH: EVQLVESGGGLVKPGGSLKLSCAASGFTFSTYAMSWVRQTPEKRLEWVATISNGGTYTYYPDSVKGRFTISRDNAENTLYLQMSSLRSEDTAMYFCARLIYYDYLDYWGHGTTLTVSS
VL: DAVMTQTPLSLPVSLGDQASISCRSSQSLENSNGNTYLNWYFQKPGQSPQLLIYRVSNRFSGVLDRFSGSGSGTDFTLKISRVEAEDFGVYFCLQVTHVPWTFGGGTKLEIKR
notes: Mouse IgG1 (gamma1), kappa light chain, purified from hybridoma supernatant; also called parent antibody MAb1
For the molecule B2, the binding result in assay [2] is given as “no binding (tested: 10 µg/mL)”.
